Assay results reported in the DeepSol protein solubility set.

Assay: soluble on expression in E. coli; label from the status in PepcDB or PDB records

Soluble on expression in E. coli, not soluble:
MGSDKIHHHHHHMQTAARRSFDYDMPLIQTPTSACQIRQAWAKVADTPDRETADRLKDEIKALLKETNAVLVAHYYVDPLIQDLALETGGCVGDSLEMARFGAEHEAGTLVVAGVRFMGESAKILCPEKTVLMPDLEAECSLDLGCPEEAFSAFCDQHPDRTVVVYANTSAAVKARADWVVTSSVALEIVSYLKSRGEKLIWGPDRHLGDYICRETGADMLLWQGSCIVHNEFKGQELAALKAEHPDAVVLVHPESPQSVIELSDVVGSTSKLLKAAVSRPEKKFIVATDLGILHEMQKQAPDKQFIAAPTAGNGGSCKSCAFCPWMAMNSLGGIKYALTSGRNEILLDRKLGEAAKLPLQRMLDFAAGLKRGDVFNGMGPA, MGSDKIHHHHHHMQVVLRIDEKDTRTLQQQVFHQIRALILEGRLRSGDPVPASRELSQQLGVSRNTVLIAYEHLLSEGYLESRANVGTFVSSALPEMSMSTLTSPANDQPSEPSGQSPAPACMPLLEHSVISPNRKKDTVDFWVGRSDGSAFPAREWRRILDTKLRHAKGQLSEYHDPRGLREFRQALADHIGPTRGVLAKPEDVVCVGGSQDGLALIARAFSRTFRTFIHEDPCYLGARAVFSNFSYDTVAVPVDRDGLRVDLLPETGRSLLYVTPSHQYPTGVTLSLERRLQLLQWAERTDSIVIEDDYDGDFRYEGTPLTALRGLDRAGRVIYLGTFSKSFGPAIRIGYLVSTAELSDAFAMWKGILSNGQPWLEQAAMADFITGGSFRRHLRRIRSTYMARRDLLARELTTRIPGTSIHGMRGGMHISARLPKGICAETLQKAAAEHRIAIYRARDCGAWLSPSNTDFDDLLVLGYAAVSDRNIRKAVDVLAHAAEQQSG, MGSDKIHHHHHHMRDLLSKKSHRQLELLELLFEHKRWFHRSELAELLNCTERAVKDDLSHVKSAFPDLIFHSSTNGIRIINTDDSDIEMVYHHFFKHSTHFSILEFIFFNEGCQAESICKEFYISSSSLYRIISQINKVIKRQFQFEVSLTPVQIIGNERDIRYFFAQYFSEKYYFLEWPFENFSSEPLSQLLELVYKETSFPMNLSTHRMLKLLLVTNLYRIKFGHFMEVDKDSFNDQSLDFLMQAEGIEGVAQSFESEYNISLDEEVVCQLFVSYFQKMFFIDESLFMKCVKKDSYVEKSYHLLSDFIDQISVKYQIEMENKDNLIWHLHNTAHLYRQELFTEFILFDQKGNTIRNFQNIFPKFVSDIKKELSHYLETLEVCSSSMMVNHLSYTFITHTKHLVINLLQNQPKLKVLVMSNFDQYHAKFVAETLSYYCSNNFELEVWTELELSKESLEDSPYDIIISNFIIPPIENKRLIYSNNINTVSLIYLLNAMMFIRLDE, MGSDKIHHHHHHMRDYSPYPLLVDVCVTNRCNLSCSYCSAEAGPFASKKGEMSVEKLDSIFRELNLMGVPRVGVTGGEPFIRDDILDILKAFDKYHFAKVLNTNGNLITDSVAKELSKLHLDRICVTVDGSCSKVHDSQRGKGSFKKAIEGIKNLQRYNLPVSTLFTLGRHNVDDLINTIRLNDMLRIKYMSVMIICPTGRANNGSILADKKHWYPVFLDLTERLSRGEFKVKFKIVPPNESDVFWTHYFPLAFYNRLDLLESVWHQSLNFNSNKKREISCQAGVRACSINHKGDVYGCDLMNGIDELVAGNVKEKSFYEIWHNSSIFHKLRNITFDDISGKCAGCPLPWCGGGCRCSALELDGTLLGSDLACFYDEEESVLV, MGSDKIHHHHHHMREEWLFSRYLNRKRVQRAASLGAGRAETEIALLELGAVEHFDLFDVSSVGIEYAKSIAEEKGFGHKVTCHVGPIGCAELNENTYDLITFVASLHHMEPLAETLERANRALTQHGIIWCANEYIGPDRFDYPVAHAAIAKSFFQQIPPGLRNHWHRELQFPTPQEVAEVDPTEAPCSSKIEPTMRDMFPALEIMPLYGAFAFMVFWGLNHDALYETPEGTELTRFILGMDKALTDAGILPTYFAHIIARKNNAPRQQIHRPGRHSSALLYRYAQRAASILRHLKIR, MGSDKIHHHHHHMRGEQSPNGLHYAREHLSCKNYMTDIDTGFKYIKFDTEKCIEEEYTHKNYLLFFLEGDFSVYCNQFCNRTFHSNEMVVLPKSSMIKISATDKSQMLAMAFDIPQSNCDKLLFQGLSSICENIDYDFSPIPMRYPLMPFLETVVHCLRNEMNCTYLHNVIEREFFFLLRGFYNKKEIATLFHPIIGRQLEFRDFVMQNYSKVNNLDELITLSNIGRTSFFIKFKEEFGITAKQWMMKQLKKRILGKVIEPGICVKQLMEVCNFESQAQLYRYFKQHFRCTPKQLIDRYQAKTDNL, MGSDKIHHHHHHMRGIVLFPIINCSGAMVEITSTEMTPPVNDSHEFIPMRGIRNRHLQTMLPRLIRRKVKFNAHWQRLELPDGDFVDLAWSEDPQQAKYKPRLVVFHGLEGSLNSPYAHGLIEAAQKRGWLGVVMHFRGCSGEPNRLNRIYHSGETEDGAWFLRWLQREFGAVPTAAVGYSLGGNMLACLLAKEGRDIPIEAAVIVSAPFVLEACSYHMDKGFSRVYQRYLLNLLKANASRKLAAYPGSLPVNLAQLKSMRRIREFDDLITAKIHGFADAIDYYRQCSAMPLLNQIAKPTLIIHAKDDPFMDHHVIPKAEDLPPQVEYQLTEHGGHVGFIGGTPLRPEMWLERRIPDWLTTYLEASS, MGSDKIHHHHHHMRGPLRGKVSFPWGLRPLPMLVYHEFGRSMTRPVIGIIGNHHLINDQYATHAGGIMNSEAVAEVSGGLPLIVPSNPAFVDLDDLMATCAGFVFTGGRPNVHPEEYGEDYTDAHGTMDRDRDALTLPLIRACVERGQPILGLCRGFQEVNVAMGGSLYPEIRDLPGRMNHRMPPDGTIEEKFELRHTVTFTEGGPFHRLMGAQQVRTNTLHGQGIKQAGARVIIDGHAEDGTPEAIYIADAPGFTLSVQWHPEYRAAEDPVSRPLFAAFGEAARAWSIGKRPVKAGEVA, MGSDKIHHHHHHMRIALDPYMYRHLSLGAMVDKTAELGYDYIELSPREDFMPFYKYPRVDRARIREFRKALSDAGVKLSSLLPLYHWAAPDEDLRIAAVRNWKRAIEVAVEMDCDLMNTEFSGQSDHALVCENQFMKSMDELMPHFEREGIKLDIQAHPYDFCERNNESVDIIRGLDRDWINYLYAAPHTFFYDDGVGDIASMLRYAGDRLTHLIIADTYNHRASSNLRYIVNPPGVTATVHQHLDIGQGEVNWEAFFSTLRDIKFDGIATVAVFAWEERADESSRFMLERVKSELLR, MGSDKIHHHHHHMRIEVKLLPLKDNPILPFNYNYEVYSQILEKVNSIEPTIAKLLSSPHGFWTFSRIIVRKRKILPDKGIEILSDDVSLYISSSNEDIIRAIAEAVEKSPEFKIGELSFLVGDIKAIKVKELGKENVFSTLSPIVVRTVKFEGNKLRHWDLYPHDELFMDRLRKVMILRYSEVMGETPKDRDFTIEVLKFKPTRLMVGSSYIRGSLMVFRYAGSEEIARFGYENGFGEKTGLGFGMVKLIE, MGSDKIHHHHHHMRIFLVGMMGSGKSTIGKRISEVLDLQFIDMDEEIERREGRSVRRIFEEDGEEYFRLKEKELLKELVERDNVVVATGGGVVVDPENRELLKKEKTLFLYAPPEVLMERVTTENRPLLSEGKERIREIWEKRKQFYAEFRRIDTSRLNEWETTALVVLEALDEKEISTIEKPHLVKIILGGFKRVRNEELVFTTERVEKIYGRYLPENRLLFPDGEEVKTLEHVSRAYYELIRMDFPRGKTIAGVGGGALTDFTGFVASTFKRGVGLSFYPTTLLAQVDASVGGKNAIDFAGVKNVVGTFRMPDYVIIDPTVTLSMDEGRFEEGVVEAFKMTILSGRGVELFDEPEKIEKRNLRVLSEMVKISVEEKARIVMEDPYDMGLRHALNLGHTLGHVYEMLEGVPHGIAVAWGIEKETMYLYRKGIVPKETMRWIVEKVKQIVPIPVPSVDVEKARNLILNDKKILKGSRVRLPYVKEIGKIEFLEVDPLELLEVVD, MGSDKIHHHHHHMRILWINHRDPKHPQAGGAEVRLYEIARRLVKMGHEVMVLCEKVSRLPGEEVLEGIRIKRSGGRASIHLLAPLYVRKHGHEYDVIVDDIAHAVPWYSPLVTKTPVVAQIHHVHQDVVYIELPKPLAWIVSRAEKTIAKIYRRFIAVSQSTKKELAKRLGIDPDRIAVVPNGVDLEKYRPGSKDPRPTILWAGRIKMYKNLDHLLKAYRIVKQEIPDAQLIIIGTGDQEQKMRELAKKLEPRDVHFLGKMSEQEKIMWMQRAWIIVSTSMIEGWGITITEAAACKIPAIAYNVPGLRDSVKHMETGILVEPGNIEQLAKAIAWLLTDNSLRNKLSENAYNYAQSFSWDNTAITFLNILEDITRI
